The RNAGym collection of RNA variant scans (doi:10.1073/pnas.2313332121)

B1: TPR t1 (parent)
chain: GACCAAUCUGCCCUCAGAGCUCGAGAACAUCUUCGGAUGCAGAGGAGGCAGGCUUCGGUGGCGCGAUAGCGCCAACGUCCUCAACCUCCAAUGCAUCCCACCACAUGAUGAUGCCUGAAGAGCCUUGGUUUUUUG

Variants of: B1
Assay: polymerase ribozyme fitness, log enrichment relative to wild type (log ratio); higher = more active; in vitro selection for triplet polymerase activity
Procedure, shortened: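 Both subunits of a heterodimeric triplet polymerase ribozyme were given their own mutant library, built by PCR and transcribed. Each library was annealed with a biotinylated primer, the partner subunit and triplets, incubated frozen at −7 °C, and its extended constructs gel-excised, captured on streptavidin beads and amplified by RT-PCR, all in one round done in triplicate. Fitness is the logarithm of genotype enrichment relative to wild-type enrichment, with replicates averaged by inverse-variance weighting. That logarithm is base 2, and Illumina-sequenced genotypes needed ≥10 input reads and ≥1 read per output.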

**Q.** With U21A G42C U59C U130G as the variant, how does the “polymerase ribozyme fitness (log ratio)” value read?
**A.** -2.41

**Q.** With U21G G47A as the variant, how does the “polymerase ribozyme fitness (log ratio)” value read?
**A.** -0.934

**Q.** For C20U U55G G69U C99A, which “polymerase ribozyme fitness (log ratio)” value is on record?
**A.** -3.12

**Q.** For U21A U38G C56A U78C, which “polymerase ribozyme fitness (log ratio)” value is on record?
**A.** -1.08

**Q.** For C20U U59A C76G, which “polymerase ribozyme fitness (log ratio)” value is on record?
**A.** -2.85

**Q.** Which “polymerase ribozyme fitness (log ratio)” value does the source give for U21C C56A G69U C70U U96A A119G here?
**A.** -2.46

**Q.** For C22A G60A, which “polymerase ribozyme fitness (log ratio)” value is on record?
**A.** -4.26

**Q.** For C22A G60U, which “polymerase ribozyme fitness (log ratio)” value is on record?
**A.** -4.21

**Q.** For U21C G63A C82A C124G U133G, which “polymerase ribozyme fitness (log ratio)” value is on record?
**A.** -0.991

**Q.** With U21C G52C G61A C82A as the variant, how does the “polymerase ribozyme fitness (log ratio)” value read?
**A.** -0.816

**Q.** For U21A C70A C86U A111C, which “polymerase ribozyme fitness (log ratio)” value is on record?
**A.** -5.59

**Q.** With C20U G42U U55G G69C U87C as the variant, how does the “polymerase ribozyme fitness (log ratio)” value read?
**A.** -4.35

**Q.** With U21A G35U A74U A111U as the variant, how does the “polymerase ribozyme fitness (log ratio)” value read?
**A.** -6.43

**Q.** For C22A C123A U125G, which “polymerase ribozyme fitness (log ratio)” value is on record?
**A.** -4.58

**Q.** Which “polymerase ribozyme fitness (log ratio)” value does the source give for C20U U21G C49A C98U here?
**A.** -4.2

**Q.** With U21C A95G as the variant, how does the “polymerase ribozyme fitness (log ratio)” value read?
**A.** -0.566

**Q.** Which “polymerase ribozyme fitness (log ratio)” value does the source give for U21C C72G A90C here?
**A.** -1.98

**Q.** With C20U G71U as the variant, how does the “polymerase ribozyme fitness (log ratio)” value read?
**A.** -1.29

**Q.** With C20U G52A G120A as the variant, how does the “polymerase ribozyme fitness (log ratio)” value read?
**A.** -1.57

**Q.** For C20U C76U G93C, which “polymerase ribozyme fitness (log ratio)” value is on record?
**A.** -3.66

**Q.** With U21C A29U C62U A84C U112A A119G G120C as the variant, how does the “polymerase ribozyme fitness (log ratio)” value read?
**A.** -1.53

**Q.** For C22A G60C U87A, which “polymerase ribozyme fitness (log ratio)” value is on record?
**A.** -5.83

**Q.** For U21A G44U C97U G113A, which “polymerase ribozyme fitness (log ratio)” value is on record?
**A.** -2.33

**Q.** Which “polymerase ribozyme fitness (log ratio)” value does the source give for C20U C72U here?
**A.** -1.9

**Q.** Which “polymerase ribozyme fitness (log ratio)” value does the source give for C22A C40U C49A C72U C123G here?
**A.** -5.79

**Q.** Which “polymerase ribozyme fitness (log ratio)” value does the source give for U21C G42A here?
**A.** -1.45

**Q.** For U21A G61C U112A U133C, which “polymerase ribozyme fitness (log ratio)” value is on record?
**A.** -0.24

**Q.** Which “polymerase ribozyme fitness (log ratio)” value does the source give for C20U U109A here?
**A.** -4.34

**Q.** For U21A G61C, which “polymerase ribozyme fitness (log ratio)” value is on record?
**A.** -1.97

**Q.** With C20U G45A G117U G127C U130G as the variant, how does the “polymerase ribozyme fitness (log ratio)” value read?
**A.** -4.33

**Q.** For C22A A84U, which “polymerase ribozyme fitness (log ratio)” value is on record?
**A.** -5.54

**Q.** Which “polymerase ribozyme fitness (log ratio)” value does the source give for C22A C115A here?
**A.** -4.55

**Q.** Which “polymerase ribozyme fitness (log ratio)” value does the source give for C22A C115G here?
**A.** -3.77

**Q.** Which “polymerase ribozyme fitness (log ratio)” value does the source give for C22A C115U here?
**A.** -6.25

**Q.** Which “polymerase ribozyme fitness (log ratio)” value does the source give for C20U G35C G60U here?
**A.** -5.9

**Q.** Which “polymerase ribozyme fitness (log ratio)” value does the source give for U21C G42A G52U C124A U125A here?
**A.** -1.88

**Q.** For C20U C85U A100U, which “polymerase ribozyme fitness (log ratio)” value is on record?
**A.** -3.48

**Q.** Which “polymerase ribozyme fitness (log ratio)” value does the source give for U21G C123G U126G here?
**A.** 0.0716

**Q.** Which “polymerase ribozyme fitness (log ratio)” value does the source give for C20U C80U C82G C85G here?
**A.** -3.74

**Q.** With C22A C70G A111C G113C as the variant, how does the “polymerase ribozyme fitness (log ratio)” value read?
**A.** -6.22

**Q.** For C20U G52A G60A U96A, which “polymerase ribozyme fitness (log ratio)” value is on record?
**A.** -3.48

**Q.** Which “polymerase ribozyme fitness (log ratio)” value does the source give for C20U G77A A84U U112G here?
**A.** -2.88

**Q.** For U21G A46C C86U, which “polymerase ribozyme fitness (log ratio)” value is on record?
**A.** -2.16

**Q.** Which “polymerase ribozyme fitness (log ratio)” value does the source give for C20U G45U A100U here?
**A.** -3.67

**Q.** With C20U U33G as the variant, how does the “polymerase ribozyme fitness (log ratio)” value read?
**A.** -6.55

**Q.** For U21A U116G G122U C124G U126A, which “polymerase ribozyme fitness (log ratio)” value is on record?
**A.** -1.21

**Q.** Which “polymerase ribozyme fitness (log ratio)” value does the source give for U21G A46G G48U A100C C102A here?
**A.** -5.54

**Q.** For C20U G44A G45U, which “polymerase ribozyme fitness (log ratio)” value is on record?
**A.** -3.42

**Q.** Which “polymerase ribozyme fitness (log ratio)” value does the source give for U21G A95C here?
**A.** -2.54

**Q.** With C20U G52C C114A C123U as the variant, how does the “polymerase ribozyme fitness (log ratio)” value read?
**A.** -4.27

**Q.** For C22A G61U C115U G128C U131A U134C, which “polymerase ribozyme fitness (log ratio)” value is on record?
**A.** -5.61

**Q.** With C22G A37U C104U U132A as the variant, how does the “polymerase ribozyme fitness (log ratio)” value read?
**A.** -3.57

**Q.** With C20U U116G as the variant, how does the “polymerase ribozyme fitness (log ratio)” value read?
**A.** -4.59

**Q.** For C22G A26C G110U, which “polymerase ribozyme fitness (log ratio)” value is on record?
**A.** -6.02

**Q.** For U21A U59A U81G C82G C115U, which “polymerase ribozyme fitness (log ratio)” value is on record?
**A.** -5.96

**Q.** With U21G A105U G120A as the variant, how does the “polymerase ribozyme fitness (log ratio)” value read?
**A.** -2.92

**Q.** Which “polymerase ribozyme fitness (log ratio)” value does the source give for C22A G52A C124U here?
**A.** -4.37

**Q.** With C20U G60U G110A as the variant, how does the “polymerase ribozyme fitness (log ratio)” value read?
**A.** -3.8

**Q.** Which “polymerase ribozyme fitness (log ratio)” value does the source give for C20U U81A here?
**A.** -1.98

**Q.** For U21A A41U G60A U96A, which “polymerase ribozyme fitness (log ratio)” value is on record?
**A.** -4.01

**Q.** With U21C U38G C49A G120U U130G U131G as the variant, how does the “polymerase ribozyme fitness (log ratio)” value read?
**A.** -4.41

**Q.** For U21A G69U, which “polymerase ribozyme fitness (log ratio)” value is on record?
**A.** 0.577

**Q.** For U21G C40U U87G, which “polymerase ribozyme fitness (log ratio)” value is on record?
**A.** -1.55

**Q.** With C20U G35A G61A A111C as the variant, how does the “polymerase ribozyme fitness (log ratio)” value read?
**A.** -5.53

**Q.** With U21G C40U G47U G63U C98A G120C as the variant, how does the “polymerase ribozyme fitness (log ratio)” value read?
**A.** -7.2

**Q.** With U21A U38G U54C U59A as the variant, how does the “polymerase ribozyme fitness (log ratio)” value read?
**A.** -1.06

**Q.** For C22A C40U C73U U112A U129C, which “polymerase ribozyme fitness (log ratio)” value is on record?
**A.** -4.96

**Q.** With C22A G61U C102A G122A as the variant, how does the “polymerase ribozyme fitness (log ratio)” value read?
**A.** -5.53

**Q.** Which “polymerase ribozyme fitness (log ratio)” value does the source give for C20U C76G C89U C104A C115U here?
**A.** -5.63

**Q.** For U21A C34A A37G C98G, which “polymerase ribozyme fitness (log ratio)” value is on record?
**A.** -2.68

**Q.** For U21A A29C G48A, which “polymerase ribozyme fitness (log ratio)” value is on record?
**A.** -3.86

**Q.** For C20U G110C, which “polymerase ribozyme fitness (log ratio)” value is on record?
**A.** -4.31

**Q.** For U21G G45U C101A, which “polymerase ribozyme fitness (log ratio)” value is on record?
**A.** -3.2

**Q.** For C22A A29G C40A G63U A74U G93A G113C G120U, which “polymerase ribozyme fitness (log ratio)” value is on record?
**A.** -7.43

**Q.** For U21A U59C C123A G128C, which “polymerase ribozyme fitness (log ratio)” value is on record?
**A.** -2.93

**Q.** For U21G G48U U59C A74U C114A, which “polymerase ribozyme fitness (log ratio)” value is on record?
**A.** -2.3

**Q.** Which “polymerase ribozyme fitness (log ratio)” value does the source give for U21A C28A G71A C79U U81A G110C here?
**A.** -6.99

**Q.** For U21A C53U A74C, which “polymerase ribozyme fitness (log ratio)” value is on record?
**A.** -0.636

**Q.** For U21G C22A A27U A95U C123A, which “polymerase ribozyme fitness (log ratio)” value is on record?
**A.** -5.39

**Q.** Which “polymerase ribozyme fitness (log ratio)” value does the source give for C20U G25C C64A C70U C98G A111U here?
**A.** -6.27

**Q.** With C22A G60A U96A U130C as the variant, how does the “polymerase ribozyme fitness (log ratio)” value read?
**A.** -4.99

**Q.** For U21C G35A U130A, which “polymerase ribozyme fitness (log ratio)” value is on record?
**A.** -4.76

**Q.** For C20U G63C A84C A105U, which “polymerase ribozyme fitness (log ratio)” value is on record?
**A.** -4.52

**Q.** With U21G C72A A121U as the variant, how does the “polymerase ribozyme fitness (log ratio)” value read?
**A.** 0.876
